Test results: US20050124544A1
Where no end group is shown, it is not given here.

Tests used:
[1] = molecular target: 2C11 human monoclonal antibody; assay: competition ELISA: 2C11 preincubated with peptide at 0.002 (µM per paragraph 93), then on immobilised FVIII
[2] = molecular target: 2C11 human monoclonal antibody; assay: competition ELISA: 2C11 preincubated with peptide at 2 (µM per paragraph 93), then on immobilised FVIII
[3] = molecular target: 2C11 human monoclonal antibody; assay: competition ELISA: 2C11 preincubated with peptide at 20 (µM per paragraph 93), then on immobilised FVIII
[4] = molecular target: 2C11 human monoclonal antibody; assay: competition ELISA: 2C11 preincubated with peptide at 200 (µM per paragraph 93), then on immobilised FVIII
[5] = molecular target: 2C11 human monoclonal antibody; assay: competition ELISA: 2C11 preincubated with peptide at 0.02 (µM per paragraph 93), then on immobilised FVIII
[6] = molecular target: 2C11 human monoclonal antibody; assay: cell-based or functional assay

% inhibition [1] | % inhibition [2] | % inhibition [3] | % inhibition [4] | % inhibition [5] | Bethesda test: neutralization of the inhibiting activity of 2C11 (3.5 nM), IC50 [6] | Bethesda test: peptide concentration for total neutralization of 2C11 (3.5 nM) [6] | in vivo (FVIII-deficient mice): procoagulant activity of injected FVIII kept with 2C11 (16.7 nM) plus peptide 107 (650 µM) [6] | Binder
0% | 15.8% | 26% | 60.7% | 0% |  |  |  | Ac-QCHTWSNRRSCL (cysteine pairing not given here) [peptide 108 (…)]
0% | 0% | 22% | 36.6% | 0% |  |  |  | Ac-CMKWSNRSSRWC (cysteine pairing not given here) [peptide 106 (…)]
0% | 37.3% | 80% | 90.5% | 0% | 19 µM | 100 µM | 52% | Ac-SCHAWSNRRTCR (cysteine pairing not given here) [peptide 107 (…)]
0% | 12.5% | 37.5% | 75% | 0% |  |  |  | Ac-RCHAWSNRKSCV (cysteine pairing not given here) [peptide 109 (…)]

Continued, binder first:

Binder | % inhibition [1] | % inhibition [2] | % inhibition [3] | % inhibition [4] | % inhibition [5] | Bethesda test: neutralization of the inhibiting activity of 2C11 (3.5 nM), IC50 [6] | Bethesda test: peptide concentration for total neutralization of 2C11 (3.5 nM) [6] | in vivo (FVIII-deficient mice): procoagulant activity of injected FVIII kept with 2C11 (16.7 nM) plus peptide 107 (650 µM) [6]
Ac-KCGRWSNRSSCT (cysteine pairing not given here) [peptide 103 (…)] | 0% | 3.47% | 28.3% | 62.7% | 0% |  |  | 
Ac-CSKWHNRSKRHC (cysteine pairing not given here) [peptide 105 (…)] | 0% | 10.3% | 45% | 75.6% | 0% |  |  | 
Ac-ECGSHAWGRRCK (cysteine pairing not given here) [peptide 104 (…)] | 0% | 13.4% | 30.7% | 63.7% | 0% |  |  | 
